Reference: US20110118447A1

Assays:
[1] = target: binding partner of C5A (XPA23); experiment: Biacore, K-off
[2] = target: binding partner of C5A (XPA23); experiment: Biacore

fold difference in affinity vs original [1] [fold] | fold affinity vs original [2] [fold] | fold difference in affinity vs original [2] [fold] | Binder
1.53 | 1.53 | – | C5A (XPA23) VH S54K (antibody, V domains shown) VH: EVQLLESGGGLVQPGGSLRLSCAASGFTFSKYFMFWVRQAPGKGLEWVSVISPKGGMTRYADSVKGRFTISRDNSKNTLYLQMNSLRAEDTAVYYCARVGYGGNSDYWGQGTLVTVSS VL: DIQMTQSPSSVSASVGDRLTIICRASQDINRWLAWYQQTPGNAPKLLIHSATSLQSGVPSRFSGSGSGTDFTLTINSLQPEDFATYYCQQADSFPLTFGGGTKVEIK
0.11 | 0.11 | – | C5A (XPA23) VH G55K (antibody, V domains shown) VH: EVQLLESGGGLVQPGGSLRLSCAASGFTFSKYFMFWVRQAPGKGLEWVSVISPSKGMTRYADSVKGRFTISRDNSKNTLYLQMNSLRAEDTAVYYCARVGYGGNSDYWGQGTLVTVSS VL: DIQMTQSPSSVSASVGDRLTIICRASQDINRWLAWYQQTPGNAPKLLIHSATSLQSGVPSRFSGSGSGTDFTLTINSLQPEDFATYYCQQADSFPLTFGGGTKVEIK
1.11 | – | 1.11 | C5A (XPA23) VH G56T (antibody, V domains shown) VH: EVQLLESGGGLVQPGGSLRLSCAASGFTFSKYFMFWVRQAPGKGLEWVSVISPSGTMTRYADSVKGRFTISRDNSKNTLYLQMNSLRAEDTAVYYCARVGYGGNSDYWGQGTLVTVSS VL: DIQMTQSPSSVSASVGDRLTIICRASQDINRWLAWYQQTPGNAPKLLIHSATSLQSGVPSRFSGSGSGTDFTLTINSLQPEDFATYYCQQADSFPLTFGGGTKVEIK
1.06 | 1.06 | – | C5A (XPA23) VH G56N (antibody, V domains shown) VH: EVQLLESGGGLVQPGGSLRLSCAASGFTFSKYFMFWVRQAPGKGLEWVSVISPSGNMTRYADSVKGRFTISRDNSKNTLYLQMNSLRAEDTAVYYCARVGYGGNSDYWGQGTLVTVSS VL: DIQMTQSPSSVSASVGDRLTIICRASQDINRWLAWYQQTPGNAPKLLIHSATSLQSGVPSRFSGSGSGTDFTLTINSLQPEDFATYYCQQADSFPLTFGGGTKVEIK
0.14 | – | 0.14 | C5A (XPA23) VH S54T (antibody, V domains shown) VH: EVQLLESGGGLVQPGGSLRLSCAASGFTFSKYFMFWVRQAPGKGLEWVSVISPTGGMTRYADSVKGRFTISRDNSKNTLYLQMNSLRAEDTAVYYCARVGYGGNSDYWGQGTLVTVSS VL: DIQMTQSPSSVSASVGDRLTIICRASQDINRWLAWYQQTPGNAPKLLIHSATSLQSGVPSRFSGSGSGTDFTLTINSLQPEDFATYYCQQADSFPLTFGGGTKVEIK
1.02 | 1.02 | – | C5A (XPA23) VH G55S (antibody, V domains shown) VH: EVQLLESGGGLVQPGGSLRLSCAASGFTFSKYFMFWVRQAPGKGLEWVSVISPSSGMTRYADSVKGRFTISRDNSKNTLYLQMNSLRAEDTAVYYCARVGYGGNSDYWGQGTLVTVSS VL: DIQMTQSPSSVSASVGDRLTIICRASQDINRWLAWYQQTPGNAPKLLIHSATSLQSGVPSRFSGSGSGTDFTLTINSLQPEDFATYYCQQADSFPLTFGGGTKVEIK
1.21 | 1.21 | – | C5A (XPA23) VH G56E (antibody, V domains shown) VH: EVQLLESGGGLVQPGGSLRLSCAASGFTFSKYFMFWVRQAPGKGLEWVSVISPSGEMTRYADSVKGRFTISRDNSKNTLYLQMNSLRAEDTAVYYCARVGYGGNSDYWGQGTLVTVSS VL: DIQMTQSPSSVSASVGDRLTIICRASQDINRWLAWYQQTPGNAPKLLIHSATSLQSGVPSRFSGSGSGTDFTLTINSLQPEDFATYYCQQADSFPLTFGGGTKVEIK
0.99 | 0.99 | – | C5A (XPA23) VH S54Y (antibody, V domains shown) VH: EVQLLESGGGLVQPGGSLRLSCAASGFTFSKYFMFWVRQAPGKGLEWVSVISPYGGMTRYADSVKGRFTISRDNSKNTLYLQMNSLRAEDTAVYYCARVGYGGNSDYWGQGTLVTVSS VL: DIQMTQSPSSVSASVGDRLTIICRASQDINRWLAWYQQTPGNAPKLLIHSATSLQSGVPSRFSGSGSGTDFTLTINSLQPEDFATYYCQQADSFPLTFGGGTKVEIK
0.08 | 0.08 | – | C5A (XPA23) VH G55Y (antibody, V domains shown) VH: EVQLLESGGGLVQPGGSLRLSCAASGFTFSKYFMFWVRQAPGKGLEWVSVISPSYGMTRYADSVKGRFTISRDNSKNTLYLQMNSLRAEDTAVYYCARVGYGGNSDYWGQGTLVTVSS VL: DIQMTQSPSSVSASVGDRLTIICRASQDINRWLAWYQQTPGNAPKLLIHSATSLQSGVPSRFSGSGSGTDFTLTINSLQPEDFATYYCQQADSFPLTFGGGTKVEIK
0.05 | 0.05 | – | C5A (XPA23) VH G56D (antibody, V domains shown) VH: EVQLLESGGGLVQPGGSLRLSCAASGFTFSKYFMFWVRQAPGKGLEWVSVISPSGDMTRYADSVKGRFTISRDNSKNTLYLQMNSLRAEDTAVYYCARVGYGGNSDYWGQGTLVTVSS VL: DIQMTQSPSSVSASVGDRLTIICRASQDINRWLAWYQQTPGNAPKLLIHSATSLQSGVPSRFSGSGSGTDFTLTINSLQPEDFATYYCQQADSFPLTFGGGTKVEIK
1.43 | 1.43 | – | C5A (XPA23) VH S54R (antibody, V domains shown) VH: EVQLLESGGGLVQPGGSLRLSCAASGFTFSKYFMFWVRQAPGKGLEWVSVISPRGGMTRYADSVKGRFTISRDNSKNTLYLQMNSLRAEDTAVYYCARVGYGGNSDYWGQGTLVTVSS VL: DIQMTQSPSSVSASVGDRLTIICRASQDINRWLAWYQQTPGNAPKLLIHSATSLQSGVPSRFSGSGSGTDFTLTINSLQPEDFATYYCQQADSFPLTFGGGTKVEIK
0.82 | 0.82 | – | C5A (XPA23) VH G56H (antibody, V domains shown) VH: EVQLLESGGGLVQPGGSLRLSCAASGFTFSKYFMFWVRQAPGKGLEWVSVISPSGHMTRYADSVKGRFTISRDNSKNTLYLQMNSLRAEDTAVYYCARVGYGGNSDYWGQGTLVTVSS VL: DIQMTQSPSSVSASVGDRLTIICRASQDINRWLAWYQQTPGNAPKLLIHSATSLQSGVPSRFSGSGSGTDFTLTINSLQPEDFATYYCQQADSFPLTFGGGTKVEIK
0.1 | 0.1 | – | C5A (XPA23) VH G55N (antibody, V domains shown) VH: EVQLLESGGGLVQPGGSLRLSCAASGFTFSKYFMFWVRQAPGKGLEWVSVISPSNGMTRYADSVKGRFTISRDNSKNTLYLQMNSLRAEDTAVYYCARVGYGGNSDYWGQGTLVTVSS VL: DIQMTQSPSSVSASVGDRLTIICRASQDINRWLAWYQQTPGNAPKLLIHSATSLQSGVPSRFSGSGSGTDFTLTINSLQPEDFATYYCQQADSFPLTFGGGTKVEIK
0.08 | 0.08 | – | C5A (XPA23) VH S54N (antibody, V domains shown) VH: EVQLLESGGGLVQPGGSLRLSCAASGFTFSKYFMFWVRQAPGKGLEWVSVISPNGGMTRYADSVKGRFTISRDNSKNTLYLQMNSLRAEDTAVYYCARVGYGGNSDYWGQGTLVTVSS VL: DIQMTQSPSSVSASVGDRLTIICRASQDINRWLAWYQQTPGNAPKLLIHSATSLQSGVPSRFSGSGSGTDFTLTINSLQPEDFATYYCQQADSFPLTFGGGTKVEIK
2.05 | 2.05 | – | C5A (XPA23) VH G56K (antibody, V domains shown) VH: EVQLLESGGGLVQPGGSLRLSCAASGFTFSKYFMFWVRQAPGKGLEWVSVISPSGKMTRYADSVKGRFTISRDNSKNTLYLQMNSLRAEDTAVYYCARVGYGGNSDYWGQGTLVTVSS VL: DIQMTQSPSSVSASVGDRLTIICRASQDINRWLAWYQQTPGNAPKLLIHSATSLQSGVPSRFSGSGSGTDFTLTINSLQPEDFATYYCQQADSFPLTFGGGTKVEIK
0.9 | 0.9 | – | C5A (XPA23) VH G55Q (antibody, V domains shown) VH: EVQLLESGGGLVQPGGSLRLSCAASGFTFSKYFMFWVRQAPGKGLEWVSVISPSQGMTRYADSVKGRFTISRDNSKNTLYLQMNSLRAEDTAVYYCARVGYGGNSDYWGQGTLVTVSS VL: DIQMTQSPSSVSASVGDRLTIICRASQDINRWLAWYQQTPGNAPKLLIHSATSLQSGVPSRFSGSGSGTDFTLTINSLQPEDFATYYCQQADSFPLTFGGGTKVEIK
0.95 | 0.95 | – | C5A (XPA23) VH G55R (antibody, V domains shown) VH: EVQLLESGGGLVQPGGSLRLSCAASGFTFSKYFMFWVRQAPGKGLEWVSVISPSRGMTRYADSVKGRFTISRDNSKNTLYLQMNSLRAEDTAVYYCARVGYGGNSDYWGQGTLVTVSS VL: DIQMTQSPSSVSASVGDRLTIICRASQDINRWLAWYQQTPGNAPKLLIHSATSLQSGVPSRFSGSGSGTDFTLTINSLQPEDFATYYCQQADSFPLTFGGGTKVEIK
0.11 | 0.11 | – | C5A (XPA23) VH G55E (antibody, V domains shown) VH: EVQLLESGGGLVQPGGSLRLSCAASGFTFSKYFMFWVRQAPGKGLEWVSVISPSEGMTRYADSVKGRFTISRDNSKNTLYLQMNSLRAEDTAVYYCARVGYGGNSDYWGQGTLVTVSS VL: DIQMTQSPSSVSASVGDRLTIICRASQDINRWLAWYQQTPGNAPKLLIHSATSLQSGVPSRFSGSGSGTDFTLTINSLQPEDFATYYCQQADSFPLTFGGGTKVEIK
1.01 | 1.01 | – | C5A (XPA23) VH S54Q (antibody, V domains shown) VH: EVQLLESGGGLVQPGGSLRLSCAASGFTFSKYFMFWVRQAPGKGLEWVSVISPQGGMTRYADSVKGRFTISRDNSKNTLYLQMNSLRAEDTAVYYCARVGYGGNSDYWGQGTLVTVSS VL: DIQMTQSPSSVSASVGDRLTIICRASQDINRWLAWYQQTPGNAPKLLIHSATSLQSGVPSRFSGSGSGTDFTLTINSLQPEDFATYYCQQADSFPLTFGGGTKVEIK
2.11 | 2.11 | – | C5A (XPA23) VH G56R (antibody, V domains shown) VH: EVQLLESGGGLVQPGGSLRLSCAASGFTFSKYFMFWVRQAPGKGLEWVSVISPSGRMTRYADSVKGRFTISRDNSKNTLYLQMNSLRAEDTAVYYCARVGYGGNSDYWGQGTLVTVSS VL: DIQMTQSPSSVSASVGDRLTIICRASQDINRWLAWYQQTPGNAPKLLIHSATSLQSGVPSRFSGSGSGTDFTLTINSLQPEDFATYYCQQADSFPLTFGGGTKVEIK
